Results reported in patent publication US20210155712A1.

Molecular target: human HER4 expressed on HEK293 cells (human) (UniProt Q15303)
Assay: flow cytometry, HEK293 HER4 overexpressing cells, PE-A B2-A channel

Chain of human HER4 expressed on HEK293 cells (human) (Q15303 26-1308): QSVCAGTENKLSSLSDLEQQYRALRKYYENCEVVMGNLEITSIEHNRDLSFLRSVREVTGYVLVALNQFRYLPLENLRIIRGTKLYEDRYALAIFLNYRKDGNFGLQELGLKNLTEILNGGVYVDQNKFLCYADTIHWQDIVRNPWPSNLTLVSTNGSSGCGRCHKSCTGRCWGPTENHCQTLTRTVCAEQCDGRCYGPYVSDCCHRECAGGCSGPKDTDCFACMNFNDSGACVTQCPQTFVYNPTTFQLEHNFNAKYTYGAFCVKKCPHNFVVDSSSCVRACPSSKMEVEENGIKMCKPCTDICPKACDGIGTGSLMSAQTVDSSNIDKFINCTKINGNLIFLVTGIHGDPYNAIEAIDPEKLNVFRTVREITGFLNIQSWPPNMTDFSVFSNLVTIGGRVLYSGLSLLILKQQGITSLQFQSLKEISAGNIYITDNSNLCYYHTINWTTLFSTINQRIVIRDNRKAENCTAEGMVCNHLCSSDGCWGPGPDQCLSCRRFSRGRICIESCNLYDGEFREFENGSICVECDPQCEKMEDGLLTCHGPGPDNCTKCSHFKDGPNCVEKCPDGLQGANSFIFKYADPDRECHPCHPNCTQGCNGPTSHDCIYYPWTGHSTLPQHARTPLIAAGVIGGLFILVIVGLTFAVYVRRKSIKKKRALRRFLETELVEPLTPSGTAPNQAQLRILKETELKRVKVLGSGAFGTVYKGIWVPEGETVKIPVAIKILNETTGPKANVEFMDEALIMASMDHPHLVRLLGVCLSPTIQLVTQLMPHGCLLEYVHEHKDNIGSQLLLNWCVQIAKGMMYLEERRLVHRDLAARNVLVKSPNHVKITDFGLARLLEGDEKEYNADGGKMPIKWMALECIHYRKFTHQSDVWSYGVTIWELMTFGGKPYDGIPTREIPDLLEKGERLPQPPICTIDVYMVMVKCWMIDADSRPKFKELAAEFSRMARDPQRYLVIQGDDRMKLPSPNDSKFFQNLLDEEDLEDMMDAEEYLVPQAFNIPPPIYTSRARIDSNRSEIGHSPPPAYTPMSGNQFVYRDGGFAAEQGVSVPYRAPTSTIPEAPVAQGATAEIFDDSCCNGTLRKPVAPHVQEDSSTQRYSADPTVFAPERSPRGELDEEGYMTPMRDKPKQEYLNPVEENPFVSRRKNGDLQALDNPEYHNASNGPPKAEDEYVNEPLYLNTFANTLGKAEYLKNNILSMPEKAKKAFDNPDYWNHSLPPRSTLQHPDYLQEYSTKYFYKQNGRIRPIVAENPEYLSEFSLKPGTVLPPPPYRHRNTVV

% Positive for HER4: 8.73%
B1: MM-121 (antibody, INN chains, looked up, human IgG2, V domains shown)
VH: EVQLLESGGGLVQPGGSLRLSCAASGFTFSHYVMAWVRQAPGKGLEWVSSISSSGGWTLYADSVKGRFTISRDNSKNTLYLQMNSLRAEDTAVYYCTRGLKMATIFDYWGQGTLVTVSS
VL: QSALTQPASVSGSPGQSITISCTGTSSDVGSYNVVSWYQQHPGKAPKLIIYEVSQRPSGVSNRFSGSKSGNTASLTISGLQTEDEADYYCCSYAGSSIFVIFGGGTKVTVL
modifications: IgG2/kappa
